Measurements taken from the supplement of paper PMC10567573.

B1: ZNF8 (parent)
chain: RIHTGERPYMCKECGKAFSQNSSL

Variants of: B1
Assay: protein stability index of a GFP-peptide fusion (GPS, HEK-293T) (PSI 1-6); higher = more stable
Details: c terminus: a fixed tail appended
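Further: lentivirally expressed fusions sorted by FACS into six bins by GFP to DsRed ratio, PSI derived from sequencing read proportions per bin multiplied by bin number.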

Variant	protein stability index
RIHTGERPYMCKYCGKAFSQNSSL [E13Y]	1.92
RIHTGERPYMCKKCGKAFSQNSSL [E13K]	1.78
RIHTGERPYMCKFCGKAFSQNSSL [E13F]	1.59
RIHTGERPYMCKRCGKAFSQNSSL [E13R]	1.87
RIHTGERPYMCKNCGKAFSQNSSL [E13N]	2.35
RIHTGERPYMCKSCGKAFSQNSSL [E13S]	1.95
RIHTGERPYMCKICGKAFSQNSSL [E13I]	1.88
RIHTGERPYMCKPCGKAFSQNSSL [E13P]	2.07
RIHTSERPYMCKECGKAFSQNSSL [G5S]	2.53
RIHTPERPYMCKECGKAFSQNSSL [G5P]	3.02
RIHTEERPYMCKECGKAFSQNSSL [G5E]	3.37
RIHTDERPYMCKECGKAFSQNSSL [G5D]	2.64
RIHTKERPYMCKECGKAFSQNSSL [G5K]	2.5
RIHTQERPYMCKECGKAFSQNSSL [G5Q]	2.47
RIHTCERPYMCKECGKAFSQNSSL [G5C]	3.78
RIHTIERPYMCKECGKAFSQNSSL [G5I]	1.83
RIHTWERPYMCKECGKAFSQNSSL [G5W]	2.49
RIHTNERPYMCKECGKAFSQNSSL [G5N]	2.44
RIHTGERPYMCKECVKAFSQNSSL [G15V]	2.33
RIHTGERPYMCKECTKAFSQNSSL [G15T]	3.05
RIHTGERPYMCKECAKAFSQNSSL [G15A]	3.37
RIHTGERPYMCKECPKAFSQNSSL [G15P]	2.54
RIHTGERPYMCKECFKAFSQNSSL [G15F]	2.09
RIHTGERPYMCKECQKAFSQNSSL [G15Q]	3.26

Variant	protein stability index
RIHTGERPYMCKECGKAYSQNSSL [F18Y]	2.39
RIHTGERPYMCKECGKASSQNSSL [F18S]	3.57
RIHTGERPYMCKECGKARSQNSSL [F18R]	3.25
RIHTGERPYMCKECGKALSQNSSL [F18L]	2.44
RIHTGERPYMCKECGKAWSQNSSL [F18W]	1.99
RIHTGERPYMCKECGKAPSQNSSL [F18P]	3.45
RIHTGERPYMCKECGKACSQNSSL [F18C]	3.03
RIHTGERPYMCKECGKAESQNSSL [F18E]	3.64
RIHTGERPYMCKECGKAVSQNSSL [F18V]	2.83
RIHTGERPYMCKECGKAHSQNSSL [F18H]	3.59
RIHTGERPYMCKECGKAQSQNSSL [F18Q]	2.79
RIHTGERPYMCKECGKAGSQNSSL [F18G]	3.35
RIHTGERPYMFKECGKAFSQNSSL [C11F]	2.36
RIHTGERPYMMKECGKAFSQNSSL [C11M]	2.82
RIHTGERPYMYKECGKAFSQNSSL [C11Y]	2.28
RIHTGERPYMKKECGKAFSQNSSL [C11K]	3.08
RIHTGERPYMNKECGKAFSQNSSL [C11N]	2.81
RIHTGERPYMWKECGKAFSQNSSL [C11W]	1.98
RIHTGERPYMEKECGKAFSQNSSL [C11E]	3.42
RIHTGERPYMLKECGKAFSQNSSL [C11L]	2.68
RIHTGERPYMCKECGKAFSQNLSL [S22L]	2.05
RIHTGERPYMCKECGKAFSQNQSL [S22Q]	2.58
RIHTGERPYMCKECGKAFSQNWSL [S22W]	2.22
RIHTGERPYMCKECGKAFSQNESL [S22E]	1.98

Variant	protein stability index
RIHTGERPYMCKECGKAFSQNTSL [S22T]	2.34
RICTGERPYMCKECGKAFSQNSSL [H3C]	3.28
RIWTGERPYMCKECGKAFSQNSSL [H3W]	2.05
RIVTGERPYMCKECGKAFSQNSSL [H3V]	2.05
RISTGERPYMCKECGKAFSQNSSL [H3S]	2.38
RIDTGERPYMCKECGKAFSQNSSL [H3D]	2.91
RIRTGERPYMCKECGKAFSQNSSL [H3R]	1.96
RITTGERPYMCKECGKAFSQNSSL [H3T]	2.8
RIMTGERPYMCKECGKAFSQNSSL [H3M]	2.49
RIHTGERPRMCKECGKAFSQNSSL [Y9R]	2.02
RIHTGERPCMCKECGKAFSQNSSL [Y9C]	4.27
RIHTGERPPMCKECGKAFSQNSSL [Y9P]	2.48
RIHTGERPQMCKECGKAFSQNSSL [Y9Q]	2.75
RIHTGERPMMCKECGKAFSQNSSL [Y9M]	2.6
RIHTGERPGMCKECGKAFSQNSSL [Y9G]	3.21
RIHTGPRPYMCKECGKAFSQNSSL [E6P]	2.34
RIHTGARPYMCKECGKAFSQNSSL [E6A]	1.91
RIHTGHRPYMCKECGKAFSQNSSL [E6H]	2.36
RIHTGKRPYMCKECGKAFSQNSSL [E6K]	2.35
RIHTGIRPYMCKECGKAFSQNSSL [E6I]	1.68
RIHTGGRPYMCKECGKAFSQNSSL [E6G]	1.5
RIHTGTRPYMCKECGKAFSQNSSL [E6T]	2.36
RIHTGFRPYMCKECGKAFSQNSSL [E6F]	2.44
RIHTGMRPYMCKECGKAFSQNSSL [E6M]	2.7

Variant	protein stability index
RIHTGERPYMCKECGKCFSQNSSL [A17C]	2.46
RIHTGERPYMCKECGKEFSQNSSL [A17E]	2.95
RIHTGERPYMCKECGKWFSQNSSL [A17W]	2.65
RIHTGERPYMCKECGKHFSQNSSL [A17H]	2.42
RIHTGERPYMCKECGKQFSQNSSL [A17Q]	3.01
RIHTGERPYMCKECGKNFSQNSSL [A17N]	2.99
RIHTGERPYMCKECGKYFSQNSSL [A17Y]	2.37
RIHTGERPYMCKECGKMFSQNSSL [A17M]	2.67
RIHTGERPYMCKECGKFFSQNSSL [A17F]	2.42
RIHTGERPYMCKERGKAFSQNSSL [C14R]	2.51
RIHTGERPYMCKEIGKAFSQNSSL [C14I]	1.93
RIHTGERPYMCKEHGKAFSQNSSL [C14H]	2.5
RIHTGERPYMCKELGKAFSQNSSL [C14L]	2.42
RIHTGERPYMCKEWGKAFSQNSSL [C14W]	2.12
RIHTGERPYMCKECGKAFSQNSSP [L24P]	3.18
RIHTGERPYMCKECGKAFSQNSSI [L24I]	2.74
RIHTGERPYMCKECGKAFSQNSSK [L24K]	3.29
RIHTGERPYMCKECGKAFSQNSSC [L24C]	3.17
RIHTGERPYMCKECGKAFSQNSSE [L24E]	3.68
RIHGGERPYMCKECGKAFSQNSSL [T4G]	2.19
RIHIGERPYMCKECGKAFSQNSSL [T4I]	2.68
RIHWGERPYMCKECGKAFSQNSSL [T4W]	1.89
RIHHGERPYMCKECGKAFSQNSSL [T4H]	2.43
RIHQGERPYMCKECGKAFSQNSSL [T4Q]	3.24

Variant	protein stability index
RIHKGERPYMCKECGKAFSQNSSL [T4K]	2.03
RIHDGERPYMCKECGKAFSQNSSL [T4D]	2.74
RIHYGERPYMCKECGKAFSQNSSL [T4Y]	2.1
RIHFGERPYMCKECGKAFSQNSSL [T4F]	2.42
RIHTGERPYMCKECGKAFSQNSAL [S23A]	2.26
RIHTGERPYMCKECGKAFSQNSKL [S23K]	3.26
RIHTGERPYMCKECGKAFSQNSPL [S23P]	2.48
RIHTGERPYMCKECGKAFSQNSWL [S23W]	1.94
RIHTGERPYMCKECGKAFSQNSTL [S23T]	2.27
RIHTGERPYMCKECGKAFSQNSYL [S23Y]	2.03
RIHTGERPYMCKECGKAFSQNSLL [S23L]	1.77
RIHTGERPYDCKECGKAFSQNSSL [M10D]	2.84
RIHTGERPYCCKECGKAFSQNSSL [M10C]	3.11
RIHTGERPYVCKECGKAFSQNSSL [M10V]	2.24
RIHTGERPYQCKECGKAFSQNSSL [M10Q]	3.16
RIHTGERPYWCKECGKAFSQNSSL [M10W]	2.3
RIHTGERPYHCKECGKAFSQNSSL [M10H]	2.52
RIHTGERPYMCKECGKAFSENSSL [Q20E]	3.19
RIHTGERPYMCKECGKAFSVNSSL [Q20V]	1.79
RIHTGERPYMCKECGKAFSTNSSL [Q20T]	2.61
RIHTGERPYMCKECGKAFSANSSL [Q20A]	2.65
RIHTGERPYMCKECGKAFSCNSSL [Q20C]	2.54
RIHTGERPYMCKECGKAFSRNSSL [Q20R]	2.54
RIHTGERPYMCKECGKAFSYNSSL [Q20Y]	2.06

Variant	protein stability index
RIHTGERPYMCKECGKAFSWNSSL [Q20W]	2.5
RIHTGERPYMCKECGKAFSSNSSL [Q20S]	2.2
RPHTGERPYMCKECGKAFSQNSSL [I2P]	3.72
RKHTGERPYMCKECGKAFSQNSSL [I2K]	2.51
RHHTGERPYMCKECGKAFSQNSSL [I2H]	2.38
RQHTGERPYMCKECGKAFSQNSSL [I2Q]	3.57
RSHTGERPYMCKECGKAFSQNSSL [I2S]	2.75
RMHTGERPYMCKECGKAFSQNSSL [I2M]	2.44
RCHTGERPYMCKECGKAFSQNSSL [I2C]	2.85
RGHTGERPYMCKECGKAFSQNSSL [I2G]	2.78
RIHTGERMYMCKECGKAFSQNSSL [P8M]	2.98
RIHTGERHYMCKECGKAFSQNSSL [P8H]	2.12
RIHTGERWYMCKECGKAFSQNSSL [P8W]	2.19
RIHTGERKYMCKECGKAFSQNSSL [P8K]	2.03
RIHTGERSYMCKECGKAFSQNSSL [P8S]	2.44
RIHTGERAYMCKECGKAFSQNSSL [P8A]	2.75
RIHTGERLYMCKECGKAFSQNSSL [P8L]	2.34
RIHTGERDYMCKECGKAFSQNSSL [P8D]	3.23
PIHTGERPYMCKECGKAFSQNSSL [R1P]	3.17
QIHTGERPYMCKECGKAFSQNSSL [R1Q]	2.75
AIHTGERPYMCKECGKAFSQNSSL [R1A]	2.93
VIHTGERPYMCKECGKAFSQNSSL [R1V]	2.88
MIHTGERPYMCKECGKAFSQNSSL [R1M]	3.04
CIHTGERPYMCKECGKAFSQNSSL [R1C]	4.88

Variant	protein stability index
EIHTGERPYMCKECGKAFSQNSSL [R1E]	2.87
IIHTGERPYMCKECGKAFSQNSSL [R1I]	2.77
RIHTGERPYMCYECGKAFSQNSSL [K12Y]	2.27
RIHTGERPYMCEECGKAFSQNSSL [K12E]	2.9
RIHTGERPYMCQECGKAFSQNSSL [K12Q]	2.11
RIHTGERPYMCNECGKAFSQNSSL [K12N]	2.66
RIHTGERPYMCVECGKAFSQNSSL [K12V]	2.07
RIHTGERPYMCHECGKAFSQNSSL [K12H]	1.96
RIHTGERPYMCCECGKAFSQNSSL [K12C]	2.16
RIHTGERPYMCTECGKAFSQNSSL [K12T]	2.15
RIHTGERPYMCIECGKAFSQNSSL [K12I]	2.17
RIHTGERPYMCRECGKAFSQNSSL [K12R]	1.99
RIHTGERPYMCKECGKAFSQHSSL [N21H]	2.4
RIHTGERPYMCKECGKAFSQISSL [N21I]	2.04
RIHTGERPYMCKECGKAFSQKSSL [N21K]	2.75
RIHTGERPYMCKECGKAFSQYSSL [N21Y]	1.5
RIHTGERPYMCKECGKAFSQTSSL [N21T]	2.66
RIHTGERPYMCKECGKAFSQWSSL [N21W]	1.7
RIHTGERPYMCKECGKAFSQFSSL [N21F]	1.8
RIHTGERPYMCKECGKAFSQRSSL [N21R]	2.26
RIHTGERPYMCKECGKAFSQMSSL [N21M]	2.17
RIHTGERPYMCKECGKAFFQNSSL [S19F]	2.02
RIHTGERPYMCKECGKAFVQNSSL [S19V]	2
RIHTGERPYMCKECGKAFMQNSSL [S19M]	2.24

Variant	protein stability index
RIHTGERPYMCKECGKAFLQNSSL [S19L]	3.17
RIHTGERPYMCKECGKAFHQNSSL [S19H]	2.8
RIHTGERPYMCKECGKAFPQNSSL [S19P]	1.81
RIHTGERPYMCKECGVAFSQNSSL [K16V]	1.71
RIHTGERPYMCKECGLAFSQNSSL [K16L]	1.71
RIHTGERPYMCKECGIAFSQNSSL [K16I]	2.08
RIHTGERPYMCKECGGAFSQNSSL [K16G]	2.41
RIHTGERPYMCKECGQAFSQNSSL [K16Q]	2.27
RIHTGERPYMCKECGFAFSQNSSL [K16F]	2.52
RIHTGERPYMCKECGNAFSQNSSL [K16N]	1.8
RIHTGERPYMCKECGSAFSQNSSL [K16S]	2.05
RIHTGERPYMCKECGWAFSQNSSL [K16W]	2.66
RIHTGESPYMCKECGKAFSQNSSL [R7S]	2.53
RIHTGEFPYMCKECGKAFSQNSSL [R7F]	2.99
RIHTGEGPYMCKECGKAFSQNSSL [R7G]	3.23
RIHTGEVPYMCKECGKAFSQNSSL [R7V]	2.37
RIHTGEQPYMCKECGKAFSQNSSL [R7Q]	3.2
RIHTGECPYMCKECGKAFSQNSSL [R7C]	3.77
RIHTGEPPYMCKECGKAFSQNSSL [R7P]	2.44
RIHTGEKPYMCKECGKAFSQNSSL [R7K]	2.35
